Experimental data from patent US20190111164A1 (published 2019).
Positions count from the first letter of the chain named. Values belong to the binder of their own block, whether it stands above or below them.

Target: dBSM (bovine)
Assay: ELISA

EC50: 8.72 nM
B1: 2F3#633 (antibody, V domains shown)
VH: EVQLLESGGGLVQPGGSLRLSCAASGFTFDSYAMSWVRQAPGKGLEWVSAISGSGASTYYADSVKGRFSISRDNSKNTLYLQMNSLRAEDTAVYYCAIRREYSGYTPFDYWGQGTLVTVSS
VL: DIVMTQTPSSLSASVGDRVTITCRASQGISSWLAWYQQKPEKAPRSLIYAASSLQSGVPSRFSGSGSGTDFTLTISSLQPEDFATYYCQQYISYPYTFGQGTKLEIK

EC50: 13.6 nM
B2: 2F3#1733 (antibody, V domains shown)
VH: B1 VH with E1Q, V2I, Q3T, L5R, A56H, S85N
VL: B1 VL

EC50: 24.4 nM
B3: 2F3#6 (antibody, V domains shown)
VH: B1 VH with E1Q, T106A, T118I
VL: B1 VL
